# Measurements taken from PMC8384158.
# B1: TAP–Bag-1S [human] / PDIA3 [human (endogenous in MCF-7 and MCF-12A)] (parent)
# chain 1: MNRSQEVTRDEESTRSEEVTREEMAAAGLTVTVTHSNEKHDLHVTSQQGSSEPVVQDLAQVVEEVIGVPQSFQKLIFKGKSLKEMETPLSALGIQDGCRVMLIGKKNSPQEEVELKKLKHLEKSVEKIADQLEELNKELTGIQQGFLPKDLQAEALCKLDRRVKATIEQFMKILEEIDTLILPENFKDSRLKRKGLVKKVQAFLAECDTVEQNICQETERLQSTNFALAE
# chain 2: SDVLELTDDNFESRISDTGSAGLMLVEFFAPWCGHCKRLAPEYEAAATRLKGIVPLAKVDCTANTNTCNKYGVSGYPTLKIFRDGEEAGAYDGPRTADGIVSHLKKQAGPASVPLRTEEEFKKFISDKDASIVGFFDDSFSEAHSEFLKAASNLRDNYRFAHTNVESLVNEYDDNGEGIILFRPSHLTNKFEDKTVAYTEQKMTSGKIKKFIQENIFGICPHMTEDNKDLIQGKDLLIAYYDVDYEKNAKGSNYWRNRVMMVAKKFLDAGHKLNFAVASRKTFSHELSDFGLESTAGEIPVVAIRTAKGEKFVMQEEFSRDGKALERFLQDYFDGNLKRYLKSEPIPESNDGPVKVVVAENFDEIVNNENKDVLIEFYAPWCGHCKNLEPKYKELGEKLSKDPNIVIAKMDATANDVPSPYEVRGFPTIYFSPANKKLNPKKYEGGRELSDFISYLQREATNPPVIQEEKPKKKKKAQEDL
# B2: TAP–Bag-1S [human] / Calnexin [human (endogenous in MCF-7 and MCF-12A)] (parent)
# chain 1: B1 chain 1
# chain 2: HDGHDDDVIDIEDDLDDVIEEVEDSKPDTTAPPSSPKVTYKAPVPTGEVYFADSFDRGTLSGWILSKAKKDDTDDEIAKYDGKWEVEEMKESKLPGDKGLVLMSRAKHHAISAKLNKPFLFDTKPLIVQYEVNFQNGIECGGAYVKLLSKTPELNLDQFHDKTPYTIMFGPDKCGEDYKLHFIFRHKNPKTGIYEEKHAKRPDADLKTYFTDKKTHLYTLILNPDNSFEILVDQSVVNSGNLLNDMTPPVNPSREIEDPEDRKPEDWDERPKIPDPEAVKPDDWDEDAPAKIPDEEATKPEGWLDDEPEYVPDPDAEKPEDWDEDMDGEWEAPQIANPRCESAPGCGVWQRPVIDNPNYKGKWKPPMIDNPSYQGIWKPRKIPNPDFFEDLEPFRMTPFSAIGLELWSMTSDIFFDNFIICADRRIVDDWANDGWGLKKAADGAAEPGVVGQMIEAAEERPWLWVVYILTVALPVFLVILFCCSGKKQTSGMEYKKTDAPQPDVKEEEEEKEEEKDKGDEEEEGEEKLEEKQKSDAEEDGGTVSQEEEDRKPKAEEDEILNRSPRNRKPRRE
# Variants of: B1
# Assay: TAP pull-down interactome analysis (LC-MS/MS)
# Conditions: with PDIA3 [human (endogenous in MCF-7 and MCF-12A)]; MCF-7 cells; read off a plot
row,Variant,screen value [log2]
1,chain 1 R193D,-0.1
2,chain 1 R162E,-0.62
3,chain 1 I103K,-0.07
4,chain 1 R161D,-1.5

# Variants of: B2
# Assay: TAP pull-down interactome analysis (LC-MS/MS)
# Conditions: with Calnexin [human (endogenous in MCF-7 and MCF-12A)]; MCF-7 cells; read off a plot
row,Variant,screen value [log2]
1,chain 1 R161D,-1.6
2,chain 1 R162E,-1.1
3,chain 1 R193D,-0.55
4,chain 1 I103K,-1.1
